In paper PMC7498355, “A quantitative binding model for the Apl protein, the dual purpose recombination-directionality factor and lysis-lysogeny regulator of bacteriophage 186” one finds binding result and Kd data, which are given here for ten molecules.

Holding throughout (conditions): protein: recombinant; label: 32P end label on one strand; blunt
Data set [1] addresses T1, Apl (bacteriophage 186, UniProt P21681 1-87).
T1 sequence: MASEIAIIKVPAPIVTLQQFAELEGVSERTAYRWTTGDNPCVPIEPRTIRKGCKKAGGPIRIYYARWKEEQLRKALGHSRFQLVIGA
As to the kind of experiment: EMSA; multiple shifted species; EMSA: 50 mM Tris-HCl pH 7.5, 0.1 mM EDTA, 10% glycerol, 150 mM NaCl, on ice >=30 min, gel at 4 C; bending in TEG 50; footprint: same Tris/EDTA/glycerol with 75.

Data set [2] deals with T1, Apl. As to the kind of experiment: EMSA; apparent Kd (50% DNA unbound); EMSA: 50 mM Tris-HCl pH 7.5, 0.1 mM EDTA, 10% glycerol, 150 mM NaCl, on ice >=30 min, gel at 4 C; bending in TEG 50; footprint: same Tris/EDTA/glycerol with 75.
The target in data set [3] is T1, Apl. The experiment in a line: EMSA; up to 6400 nM Apl; EMSA: 50 mM Tris-HCl pH 7.5, 0.1 mM EDTA, 10% glycerol, 150 mM NaCl, on ice >=30 min, gel at 4 C; bending in TEG 50; footprint: same Tris/EDTA/glycerol with 75.
For data set [4], the target named is T1, Apl. As to the kind of experiment: EMSA; pattern similar to central five pR-pL operators; EMSA: 50 mM Tris-HCl pH 7.5, 0.1 mM EDTA, 10% glycerol, 150 mM NaCl, on ice >=30 min, gel at 4 C; bending in TEG 50; footprint: same Tris/EDTA/glycerol with 75.
The target of data set [5] is T1, Apl. As to the kind of experiment: EMSA; two retarded bands; EMSA: 50 mM Tris-HCl pH 7.5, 0.1 mM EDTA, 10% glycerol, 150 mM NaCl, on ice >=30 min, gel at 4 C; bending in TEG 50; footprint: same Tris/EDTA/glycerol with 75.

B1: Apl 6 (dsDNA)
DNA 1: TATTTTGGCTAAACCCACGCAATTGATGGCAAGTGTTGGCAAACAGAGTCAAATCAATTGCAAACTT
DNA 2: AAGTTTGCAATTGATTTGACTCTGTTTGCCAACACTTGCCATCAATTGCGTGGGTTTAGCCAAAATA
With B1, the binding result with Apl [1] was “binds”.

B2: Apl 7 (dsDNA)
DNA 1: TATTTTGGCTAAACCCACGCAATTGATGGCAAGTGTTGGCAAACAGAGTCAAATCAATTGCAAACTTTGGCTAATAGG
DNA 2: CCTATTAGCCAAAGTTTGCAATTGATTTGACTCTGTTTGCCAACACTTGCCATCAATTGCGTGGGTTTAGCCAAAATA
Take B2: in the data set with Apl [2], the Kd is around 275 nM.

B3: Apl 1101 (dsDNA)
DNA 1: AACCCACGCAATTGATGGCAAGTGTCTTAGGACAGAGTCAAATCA
DNA 2: TGATTTGACTCTGTCCTAAGACACTTGCCATCAATTGCGTGGGTT
In the case of B3, the binding result with Apl [3] is reported as “no binding”.

B4: Apl 101 (dsDNA)
DNA 1: TGATGGCAAGTGTCTTAGGACAGAGTCAAATCA
DNA 2: TGATTTGACTCTGTCCTAAGACACTTGCCATCA
Consider B4, for which the binding result with Apl [3] is listed as “no binding”.

B5: Apl 10101 (dsDNA)
DNA 1: AACCCACGCAATTGACTTAGGGTGTTGGCAAACAGCTTAGGATCAATTGCAAACTT
DNA 2: AAGTTTGCAATTGATCCTAAGCTGTTTGCCAACACCCTAAGTCAATTGCGTGGGTT
For the molecule B5, in the data set with Apl [3], the binding result is “no binding”.

B6: attP 5 (dsDNA)
DNA 1: ATCATTGACATAGATTGCCATTGTTTGCCAATAATTACCTATTATTCGCCATTTC
DNA 2: GAAATGGCGAATAATAGGTAATTATTGGCAAACAATGGCAATCTATGTCAATGAT
Regarding B6, the binding result with Apl [4] is reported as “binds”.

B7: Apl 3 (111) (dsDNA)
DNA 1: TTGATGGCAAGTGTTGGCAAACAGAGTCAAATCA
DNA 2: TGATTTGACTCTGTTTGCCAACACTTGCCATCAA
Turning to B7, in the data set with Apl [2], the Kd was around 800 nM.

B8: Apl 2 (two pR-pL operators) (dsDNA)
DNA 1: TTGATGGCAAGTGTTGGCAAACAG
DNA 2: CTGTTTGCCAACACTTGCCATCAA
Regarding B8, the binding result in the data set with Apl [3] is given as “no binding”.

B9: Apl 4 (dsDNA)
DNA 1: TTGATGGCAAGTGTTGGCAAACAGAGTCAAATCAATTGCAAACTT
DNA 2: AAGTTTGCAATTGATTTGACTCTGTTTGCCAACACTTGCCATCAA
As to B9, in the data set with Apl [5], the binding result was “binds”.

B10: Apl 5 (dsDNA)
DNA 1: AACCCACGCAATTGATGGCAAGTGTTGGCAAACAGAGTCAAATCAATTGCAAACTT
DNA 2: AAGTTTGCAATTGATTTGACTCTGTTTGCCAACACTTGCCATCAATTGCGTGGGTT
Take B10: the binding result in the data set with Apl [5] was “binds”.
